Results taken from publication PMC4646684.

Key:
[1] = biological target: soluble form of Fas ligand (mouse (endogenous in primary Balb/cJ bone marrow-derived osteoclast cultures))
[2] = biological target: soluble form of Fas ligand (mouse (endogenous in primary Balb/cJ bone marrow-derived osteoclast cultures)); remark: listed apart in the source

Chain of soluble form of Fas ligand (mouse (endogenous in primary Balb/cJ bone marrow-derived osteoclast cultures)) (P41047 101-279): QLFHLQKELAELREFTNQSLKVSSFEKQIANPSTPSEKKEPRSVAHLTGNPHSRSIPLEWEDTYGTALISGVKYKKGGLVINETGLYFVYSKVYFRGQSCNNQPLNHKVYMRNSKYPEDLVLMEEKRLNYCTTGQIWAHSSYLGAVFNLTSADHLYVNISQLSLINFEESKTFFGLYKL

## Osteoprotegerin (from UniProt O08712 22-401) (receptor)
[1]
  percentage of apoptotic osteoclasts (TUNEL-derived method), 24 h with OPG at 0, 20, 40, 80 ng/mL (22.7%, 34.8%, 43.5%, 51.3%): 51.3%
[2]
  concentration of soluble FasL in the osteoclast culture medium by ELISA, 24 h with OPG at 0, 20, 40, 80 ng/mL (69.44, 54.51, 41.71, 4.59 pg/mL; falls with the dose): 69.4 pg/mL
